In publication PMC11826994:

Key:
[1] = target: full-length histone H4 with L-isoaspartate at position 24 (H4isoD24), semisynthetic (UniProt P62805)
[2] = target: full-length histone H4 with the canonical Asp at position 24 (H4D24), semisynthetic (UniProt P62805)

| Substance | k (1,obs), rate of H4K20 monomethylation by Set8 on 12-mer nucleosome arrays containing H4isoD24 (with Suv4-20h1 and AdoMet; HRMS) [1] | k (1,obs), rate of H4K20 monomethylation by Set8 on 12-mer nucleosome arrays containing H4D24 (with Suv4-20h1 and AdoMet; HRMS) [2] | k (2,obs), rate of H4K20me1 to H4K20me2 methylation by Suv4-20h1 on 12-mer nucleosome arrays containing H4isoD24 (with Set8 and AdoMet; HRMS) [1] | k (2,obs), rate of H4K20me1 to H4K20me2 methylation by Suv4-20h1 on 12-mer nucleosome arrays containing H4D24 (with Set8 and AdoMet; HRMS) [2] |
| --- | --- | --- | --- | --- |
| methyltransferase Set8 (from UniProt Q9NQR1 1-393) (enzyme) | 0.0016 min^–1 | 0.0059 min^–1 | – | – |
| methyltransferase Suv4-20h1 (from UniProt Q4FZB7 1-885) (enzyme) | – | – | 0.002 min^–1 | 0.033 min^–1 |
